Patent publication US20210205413A1 (Nektar Therapeutics, priority 2018, published 2021)
Where “and” joins values, the source holds several entries; their conditions need not be identical. Equal values may be shown once.

Assays:
[1] = Single dose pharmacokinetics in monkeys (IV and SC); assay type: in vivo, Cynomolgus Monkeys
Tregs = assay: Single-dose study in cynomologous monkey: Tregs in blood by flow cytometry; assay type: in vivo
Description: A series of blood samples are taken from each animal before treatment (day −6 and −1) and at multiple intervals following treatment for assessment by flow cytometry of Treg cell numbers and activation state.
For immunophenotyping analysis, blood samples (approximately 1.0 mL) are collected from each monkey at the following time points: Pre-treatment (Day −6 and −1), Day 2, Day 3, Day 4, Day 5, Day 6, Day 7, Day 10, Day 14, and Day 21 post treatment. Venipuncture samples are collected into tubes containing the anticoagulant, K2EDTA. Tubes are placed on wet ice pending transfer. The whole blood samples are analyzed by flow cytometry using the following panels, and the samples are analyzed for the following: • T cell panel: CD45/CD3/CD4/CD8/ICOS • TB/NK panel: CD45/CD3/CD16/CD20 • pSTAT5 panel: CD3/CD4/CD8/CD25/CD127/pSTAT5 • Treg panel 1: CD3/CD4/CD8/CD25/FoxP3/Ki67 • Treg panel 2: CD3/CD4/CD8/CD25/FoxP3/Helios Computerized systems can be used for the conduct of the study, for example flow cytometry data acquisition can use BD FACSCanto II/FACSDiva LEGENDPlex Data Analysis Software, and flow cytometry data analysis can use De Novo FCS Express software.
Values from male and female are averaged, and the magnitude of change is shown relative to d-1 values, marked by the dotted line.

Tregs in human PBMC = assay: pSTAT5 induction in lymphocyte populations of human PBMC (flow cytometry, CyToF); assay type: cell-based; conditions: in vitro
Description: Impaired IL-2 production and regulatory T cell dysfunctions have been implicated as an immunological mechanism in multiple autoimmune diseases. While low-dose IL-2 can be used to stimulate Tregs for clinical benefit, poor pharmacokinetics necessitates daily delivery, adverse events are dose-limiting, and Treg increases are modest and short-lived. […] The affinity to the IL-2 receptor is assessed by surface plasmon resonance. Activity in human PBMC can be measured by pSTAT5 induction in multiple lymphocyte populations using flow cytometry and time-of-flight mass cytometry (CyToF). In vivo activity after subcutaneous administration in C57BL/6 mice or cynomolgus monkey is measured by changes in lymphocyte numbers and activation by flow cytometry. Ex vivo Treg function is determined by the inhibition of Tcon proliferation by isolated splenic Treg. Efficacy is assessed in a model of systemic lupus erythematosus (SLE) using MRL/MpJ-Faslpr mice. […] In mice, a single administration leads to sustained Treg mobilization for 7-10 days in blood and spleen without Tcon activation, an effect concomitant with induction of Treg activation markers and increased ex vivo suppressive capacity. […] Finally, an RUR20kD-IL-2 composition is efficacious in mouse models of SLE.

[2] = Phase I ascending multiple-dose study in patients with SLE: pharmacokinetics; assay type: in vivo, human; conditions: Multi-Dose Study
Description: The effects on SLE disease activity are also evaluated. Twelve SLE patients with minimal to moderate disease activity are randomized to each of four dose cohorts, nine of whom received multiple 1.0 mg/mL aqueous solution sub-cutaneous doses of RUR-IL-2-20 kD, while three received placebo. […] In Cohort 1, a starting dose of 3.0 μg/kg is administered three times at two-week intervals (Days 1, 15, and 29). This starting dose is based on the favorable safety and PD profile of single sub-cutaneous doses of RUR20kD-IL-2 previously determined in the study described above. The subsequent dose levels in Cohorts 2, 3, and 4, respectively, were up to two-fold that of the previous dose cohort. Patients in Cohorts 1-3 received three doses of study drug at two-week intervals over a total of four weeks. Doses to be evaluated over the course of the study range from 3.0 μg/kg to 24 μg/kg. […] After receiving the final dose of RUR20kD-IL-2 or placebo, patients are followed for an additional fifty days to evaluate safety, PK, PD, and preliminary efficacy. Eight of twelve subjects in each cohort are evaluated two weeks after the third dose of the final patient by the Safety Review Committee for possible safety issues. In addition, all patients in Cohort 4 are evaluated by the Safety Review Committee twice: (1) two weeks after the first eight subjects receive their third dose and (2) two weeks after all subjects receive all doses of study drug. Immunologic changes, including Tregs, CD4^+-T cells, CD8^+-T cells, and NK cell responses, cytokine levels, and available PK data, in addition to safety findings, are used to determine dose levels. The primary objective of the study is to evaluate the safety and tolerability of RUR20kD-IL-2 administered as multiple ascending subcutaneous doses to patients with SLE. […] Results depicting preliminary PK data from the ascending multi-dose study are compared with data from the single subcutaneous study in the below Table 15: […]

[3] = system: Balb/c mice (KLH DTH model); assay: Antigen dependent, T cell-mediated DTH model with KLH rechallenge; assay type: in vivo
Description: To develop the DTH model, Balb/c mice are sensitized with a subcutaneous administration of a model antigen keyhole limpet hemocyanin (KLH) emulsified in complete and incomplete Freund's adjuvant. […] Inflamed ears are subjected to immunohistochemistry (IHC) to quantify percent of FoxP3+ Treg cells post KLH challenge. The specificity of response is assessed after an additional 3-4 weeks with no treatment by either KLH rechallenge or conducting sensitization and challenge with an unrelated antigen ovalbumin (OVA). […] Post ten days of 2nd sensitization, mice are challenged with OVA eight times orally, every alternative day. […] Severity of allergic response is assessed by clinical scoring within 30-45 min of post 8th challenge. Further, serum mast cell protease 1 (MCPT 1) and OVA specific IgE titers are quantified. The percent Treg is determined by flow cytometry in peripheral blood and in spleen.

[4] = cynomolgus monkeys, single IV 0.025 mg/kg, mean of male and female
[5] = cynomolgus monkeys, single SC 0.025 mg/kg, mean of male and female

Substance: (1,3-bis(methoxypoly(ethylene glycol)10kDcarbamoyl)-2-propanoxy)-4-butanamide)interleukin-2) [RUR20kD-IL-2]
- AUCinf [1, 4]: 100000 ng·h/mL
- AUClast [1, 4]: 71200 ng·h/mL
- Half-life [1, 4]: 12.9 days
- MRTinf [1, 4]: 16.8 days
- Vss [1, 4]: 0.1 L/kg
- CL ([1]; cynomolgus monkeys, single IV 0.025 mg/kg, mean of male and female, 0.025 mg/kg): 5.88 mL/day/kg and 6 mL/day/kg
- AUCinf [1, 5]: 86000 ng·h/mL
- AUClast [1, 5]: 65400 ng·h/mL
- Cmax [1, 5]: 250 ng/mL
- Half-life [1, 5]: 10.4 days
- MRTinf [1, 5]: 15.0 days
- Vss relative to species-specific plasma volume ([1]; monkeys): 2-4 fold
- half-lives ([1]; monkeys, intravenous or subcutaneous dosing, range): 10.4 to 12.9 days
- day FoxP3 MFI nearly returns to pre-dose levels (Tregs; single SC 25 μg/kg): 14 to 21 days
- day by which CD25 MFI returns to near pre-dose levels (Tregs; single SC 25 μg/kg): ≤ 21 days
- day of maximum CD25 MFI (Tregs; single SC 25 μg/kg): 6 days
- days by which Treg numbers return to near d-1 levels (Tregs; single SC 25 μg/kg): 14 to 21 days
- time of maximum FoxP3 MFI (Tregs; single SC 25 μg/kg): 6 days
- time of maximum Treg cell numbers (Tregs; single SC 25 μg/kg): seven days following administration
- duration of sustained Treg mobilization and activity (Tregs; single administration): over 14 days
- STAT5 phosphorylation in Tregs relative to other lymphocyte subsets (Tregs in human PBMC): increased STAT5 phosphorylation relative to other lymphocyte subsets
- AUC0-14 d ([2]; 3.0 μg/kg, Median (n = 9)): 185 ng·days/mL
- Cmax ([2]; 3.0 μg/kg, Median (n = 9)): 18 ng/mL
- tmax ([2]; 3.0 μg/kg, Median (n = 9)): 6 days
- AUC0-14 d ([2]; 3.0 μg/kg, max): 291 ng·days/mL
- Cmax ([2]; 3.0 μg/kg, max): 26 ng/mL
- tmax ([2]; 3.0 μg/kg, max): 14 days
- AUC0-14 d ([2]; 3.0 μg/kg, min): 113 ng·days/mL
- Cmax ([2]; 3.0 μg/kg, min): 15 ng/mL
- tmax ([2]; 3.0 μg/kg, min): 2 days
- Cmax ([2]; 6.0 μg/kg, Median (n = 7)): 14 ng/mL
- tmax ([2]; 6.0 μg/kg, Median (n = 7)): 6 days
- AUC0-14 d ([2]; 6.0 μg/kg, max): 206 ng·days/mL
- Cmax ([2]; 6.0 μg/kg, max): 22 ng/mL
- tmax ([2]; 6.0 μg/kg, max): 14 days
- AUC0-14 d ([2]; 6.0 μg/kg, min): 43 ng·days/mL
- Cmax ([2]; 6.0 μg/kg, min): 5 ng/mL
- tmax ([2]; 6.0 μg/kg, min): 4 days
- inflammatory response to KLH rechallenge ([3]; SC 0.003-0.3 mg/kg q3d, day 0 through day 8): suppressed the inflammatory response to KLH rechallenge in a dose dependent manner
- FoxP3+ Treg cells in inflamed ears (IHC) ([3]; post KLH challenge): significant infiltration of FoxP3+ Treg cells
- durability and specificity of suppressive effect on inflammation ([3]; re-challenge post 3-4 weeks without further administration, same and unrelated antigen (OVA)): durable and antigen-specific
